We go through 94 variants from the supplement of paper PMC10567573.

First the molecules themselves.
B1: INTS4 (parent)
chain: YSSGEFSSGRKWGDDAPKEEVDTG
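Further: lentivirally expressed fusions sorted by FACS into six bins by GFP to DsRed ratio, PSI derived from sequencing read proportions per bin multiplied by bin number.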

In this data set the parent is B1. The data set is described as follows: protein stability index of a GFP-peptide fusion (GPS, HEK-293T) (PSI 1-6); higher = more stable. The note with it: c terminus: a fixed tail appended.
Regarding YSSGEFSSGRKWGDDAPKEQVDTG, the protein stability index is 2.6.

YSSGEFSSGRKWGDDAPKEFVDTG: the protein stability index is 2.42. In the case of YSSGEFSSGRKWGDDAPKERVDTG, the protein stability index came to 2.28. Next, YSSGEFSSGRKWGDDAPKEKVDTG: 1.91; YSSGEFSSGRKWGDDAPKEPVDTG: 2.42; YSSGEFSSGRKWGDDAPKELVDTG: 1.89.

Take YSSGEFSSERKWGDDAPKEEVDTG: the protein stability index was 2.76. Next, YSSGEFSSYRKWGDDAPKEEVDTG: 2.44; YSSGEFSSQRKWGDDAPKEEVDTG: 2.35; YSSGEFSSVRKWGDDAPKEEVDTG: 3.12. The figure for YSSGEFSSPRKWGDDAPKEEVDTG is 2.27; for YSSGEFSSRRKWGDDAPKEEVDTG it is 2.32. The figure for YSSGEFSSWRKWGDDAPKEEVDTG is 1.43; for YSSGEFSSIRKWGDDAPKEEVDTG it is 1.84.

Take YRSGEFSSGRKWGDDAPKEEVDTG: the protein stability index turned out to be 5.05. Next, YNSGEFSSGRKWGDDAPKEEVDTG: 4.64; YMSGEFSSGRKWGDDAPKEEVDTG: 3.97; YTSGEFSSGRKWGDDAPKEEVDTG: 2.67. The figure for YSSGEFSSGRKWGDLAPKEEVDTG is 2.04; for YSSGEFSSGRKWGDTAPKEEVDTG it is 2.28; for YSSGEFSSGRKWGDGAPKEEVDTG it is 2.07.

For YSSGEFSSGRKWGDCAPKEEVDTG, the protein stability index was 2.5. The figure for YSSGEFSSGRKWGDPAPKEEVDTG is 1.96; for YSSGEFSSGRKWGDMAPKEEVDTG it is 1.78. Next, YSSGEFSSGRKWGDQAPKEEVDTG: 2.12; YSSGEFSSGRKWGDKAPKEEVDTG: 2.18; YSSGEFSSGRKWGDHAPKEEVDTG: 1.81. The figure for YSSGEFSSGRKWGDSAPKEEVDTG is 2.54. For the variant YSSGEFSSGRKWGDAAPKEEVDTG, the protein stability index worked out at 1.78.

For the variant YSSGEFSSGRKWGDDAPKEECDTG, the protein stability index came to 3.39. The figure for YSSGEFSSGRKWGDDAPKEEFDTG is 2.58; for YSSGEFSSGRKWGDDAPKEEHDTG it is 2.74; for YSSGEFSSGRKWGDDAPKEELDTG it is 2.28. Turning to YSSGEFSSGRKWGDDAPKEENDTG, the protein stability index is 2.81. The figure for YSSGEFSSGRKWGDDAPKEEYDTG is 2.74. Turning to YSSGEFSSGRKWGDDAPKEERDTG, the protein stability index turned out to be 2.83. The figure for YSSGEFSSGRKWGDDAPKEETDTG is 3.31.

As to YSSGEFSSGRKWGDDAPKEEIDTG, the protein stability index is 2.27. Next, YSSGEFSSGRKWGDDAPKEEKDTG: 2.8.

Take YSSGEFSSGRKWGDDAGKEEVDTG: the protein stability index was 2.09. Next, YSSGEFSSGRKWGDDAEKEEVDTG: 2.8; YSSGEFSSGRKWGDDAYKEEVDTG: 1.99. The figure for YSSGEFSSGRKWGDDAHKEEVDTG is 1.47; for YSSGEFSSGRKWGDDARKEEVDTG it is 2.01; for YSSGEFSSGRKWGDDAIKEEVDTG it is 2.44.

With YSSGEFSSGRKWGDDACKEEVDTG, the protein stability index was found to be 2.64.

With YSSGEFSSGRKWGDDADKEEVDTG, the protein stability index was found to be 3.06. As to YSSGEFSSGRKWGDDAWKEEVDTG, the protein stability index is 2.9.

As to NSSGEFSSGRKWGDDAPKEEVDTG, the protein stability index stood at 5.22. The figure for DSSGEFSSGRKWGDDAPKEEVDTG is 5.8. Next, SSSGEFSSGRKWGDDAPKEEVDTG: 5.81; TSSGEFSSGRKWGDDAPKEEVDTG: 5.12; WSSGEFSSGRKWGDDAPKEEVDTG: 4.52.

Consider YSSGEFSSGRKWGDDAPKEEVDRG, for which the protein stability index came to 2.96. The figure for YSSGEFSSGRKWGDDAPKEEVDIG is 2.3; for YSSGEFSSGRKWGDDAPKEEVDDG it is 2.96; for YSSGEFSSGRKWGDDAPKEEVDYG it is 2.36. The figure for YSSGEFSSGRKWGDDAPKEEVDVG is 2.39; for YSSGEFSSGRKWGDDAPKEEVDAG it is 2.35. The figure for YSSGEFSSGRKWGDDAPKEEVDLG is 2.9. As for YSSGEFSSGRKWGDDAPKEEVDFG, the protein stability index is 2.47. The figure for YSSGEFSSGRKWGDDAPKEEVDHG is 2.35; for YSSGEFSSGRKWGCDAPKEEVDTG it is 1.79; for YSSGEFSSGRKWGQDAPKEEVDTG it is 1.41. Consider YSSGEFSSGRKWGEDAPKEEVDTG, for which the protein stability index is 2.32.

For YSSGEFSSGRKWGADAPKEEVDTG, the protein stability index stood at 2.54. The figure for YSSGEFSSGRKWGNDAPKEEVDTG is 2.59; for YSSGEFSSGRKWGWDAPKEEVDTG it is 2.2; for YSSGEFSSGRKWGKDAPKEEVDTG it is 1.71. Consider YSSGEFSSGRKWGFDAPKEEVDTG, for which the protein stability index came out at 2.59. Next, YSSGEFSSGRKWGDDAPKEEVDTR: 2.83. Next, YSSGEFSSGRKWGDDAPKEEVDTL: 2.76; YSSGEFSSGRKWGDDAPKEEVDTS: 2.65; YSSGEFSSGRKWGDDAPKEEVDTY: 2.28. Next, YSSGEFSSGRKWGDDAPKEEVDTP: 2.4.

YSSGEFSSGRKWGDDAPKEEVDTF: the protein stability index was 2.63.

For YSSGEFSSGRKWGDDAPKEEVDTM, the protein stability index was found to be 2.68. The figure for YSSGEFSSGRKWGDDAPKEEVDTD is 2.16; for YSSGEFSSGRKWGDDAPFEEVDTG it is 4.04. Next, YSSGEFSSGRKWGDDAPIEEVDTG: 2.73; YSSGEFSSGRKWGDDAPVEEVDTG: 2.81. The figure for YSSGEFSSGRKWGDDAPQEEVDTG is 2.92; for YSSGEFSSGRKWGDDAPCEEVDTG it is 2.62; for YSSGEFSSGRKWGDDAPSEEVDTG it is 3.16. As to YSSGEFSSGRKWGDDAPHEEVDTG, the protein stability index stood at 2.83. Next, YSSGEFSSGRKWGDDLPKEEVDTG: 2.48. Take YSSGEFSSGRKWGDDMPKEEVDTG: the protein stability index came out at 2.52. The figure for YSSGEFSSGRKWGDDHPKEEVDTG is 1.92.

Turning to YSSGEFSSGRKWGDDDPKEEVDTG, the protein stability index was determined as 2.95. The figure for YSSGEFSSGRKWGDDNPKEEVDTG is 2.09. As to YSSGEFSSGRKWGDDTPKEEVDTG, the protein stability index stood at 2.28. Turning to YSSGEFSSGRKWGDDAPKDEVDTG, the protein stability index was determined as 2.74. The figure for YSSGEFSSGRKWGDDAPKIEVDTG is 2.32; for YSSGEFSSGRKWGDDAPKVEVDTG it is 1.84.
